Experimental data as given in patent US20110262445A1 (CEPHALON AUSTRALIA, published 2011).
Positions count from the first letter of the chain named.

B1: Antibody 93 (antibody, human IgG1, kappa, V domains shown)
VH: EVQLVQSGAEVKKPGATVKISCKASGYTFSDYYLHWVRQAPEKGLEWMGWIDPENGDTEYAPKFQGRVTITADTSTDTGYLELSSLRSEDTAVYYCNANKELRYFDVWGQGTLVTVSS
VL: DIQMTQSPSSVSASVGDRVTITCRASQSISINLHWYQQKPGKAPKLLIYFASQSISGVPSRFSGSGSGTDFSLTINSLQPEDFARYYCQQSNSFPLTFGGGTKVEIKR
B2: Antibody 100 (antibody, human IgG1, kappa)
heavy chain: not shown
light chain: DIQMTQSPSSVSASVGDRVTITCRASQSISINLHWYQQKPGKAPKLLIYFASQSISGVPSRFSGSGSGTDFSLTINSLQPEDFARYYCQQSNSFPLTFGGGTKVEIKRTVAAPSVFIFPPSDEQLKSGTASVVCLLNNFYPREAKVQWKVDNALQSGNSQESVTEQDSKDSTYSLSSTLTLSKADYEKHKVYACEVTHQGLSSPVTKSFNRGEC
B3: Antibody 107 (antibody, human IgG1, kappa, V domains shown)
VH: B1 VH with T28N, N97A
VL: B1 VL
B4: Antibody 105 (antibody, human IgG1, kappa, V domains shown)
VH: B1 VH with K23T, N97A
VL: B1 VL
B5: Antibody 97 (antibody, human IgG1, kappa)
heavy chain: not shown
light chain: B2 light chain
B6: Antibody 103 (antibody, human IgG1, kappa)
heavy chain: not shown
light chain: B2 light chain
B7: Antibody 99 (antibody, human IgG1, kappa)
heavy chain: not shown
light chain: B2 light chain
B8: Antibody 106 (antibody, human IgG1, kappa, V domains shown)
VH: B1 VH with Y27F, N97A
VL: B1 VL
B9: Antibody 98 (antibody, human IgG1, kappa)
heavy chain: not shown
light chain: B2 light chain
B10: Antibody 101 (antibody, human IgG1, kappa)
heavy chain: not shown
light chain: B2 light chain
B11: Antibody 104 (antibody, human IgG1, kappa)
heavy chain: not shown
light chain: B2 light chain
B12: Antibody 94 (antibody, human IgG1, kappa, V domains shown)
VH: B1 VH with A98R
VL: B1 VL
B13: Antibody 102 (antibody, human IgG1, kappa)
heavy chain: not shown
light chain: B2 light chain
B14: Antibody 205 (antibody, human IgG1, kappa, V domains shown)
VH: QVQLVQSGAEVKKPGASVKVSCKASGYTFTDYYLHWVRQAPGRGLEWMGWIDPENGDTEYAPKFQGRVTMTTDTSTSTAYMELRSLRSDDTAVYYCAANKELRYFDVWGQGTMVTVSS
VL: EIVMTQSPATLSVSPGERATLSCRASQSISINLHWYQQKPGQAPRLLIYFASQSISGIPARFSGSGSGTEFTLTISSLQSEDFAVYYCQQSNSFPLTFGGGTKVEIKR
B15: Antibody 194 (antibody, human IgG1, kappa, V domains shown)
VH: B14 VH with F29L, R43Q, Y60S
VL: B1 VL with P80T, R85T
B16: Antibody 190 (antibody, human IgG1, kappa, V domains shown)
VH: B14 VH with R43Q, A97N
VL: B1 VL with P80T, R85T
B17: Antibody 192 (antibody, human IgG1, kappa, V domains shown)
VH: B14 VH with F29L, R43Q
VL: B1 VL with P80T, R85T
B18: Antibody 195 (antibody, human IgG1, kappa, V domains shown)
VH: B14 VH with R43Q, Y60H
VL: B1 VL with P80T, R85T
B19: Antibody 198 (antibody, human IgG1, kappa, V domains shown)
VH: B14 VH with T28A, R43Q
VL: B1 VL with P80T, R85T
B20: Antibody 182 (antibody, human IgG1, kappa, V domains shown)
VH: B1 VH with F29L, Y60H, N97A
VL: B1 VL with P80T, R85T
B21: Antibody 177 (antibody, human IgG1, kappa, V domains shown)
VH: B1 VH with Y60S, N97A
VL: B1 VL with P80T, R85T
B22: Antibody 181 (antibody, human IgG1, kappa, V domains shown)
VH: B1 VH with Y60H, N97A
VL: B1 VL with P80T, R85T
B23: Antibody 180 (antibody, human IgG1, kappa, V domains shown)
VH: B1 VH with F29L, Y60S, N97A
VL: B1 VL with P80T, R85T
B24: Antibody 193 (antibody, human IgG1, kappa, V domains shown)
VH: B14 VH with R43Q, Y60S
VL: B1 VL with P80T, R85T

Biological target: T1, human IL-12 (human, UniProt P29460 23-328; P29459 23-219)
T1 construct: Recombinant (Peprotech); FLAG-tagged IL-12 in the flow cytometry assays, biotinylated in the IL-12Rβ2 assay; also called hIL-12
T1 sequence 1: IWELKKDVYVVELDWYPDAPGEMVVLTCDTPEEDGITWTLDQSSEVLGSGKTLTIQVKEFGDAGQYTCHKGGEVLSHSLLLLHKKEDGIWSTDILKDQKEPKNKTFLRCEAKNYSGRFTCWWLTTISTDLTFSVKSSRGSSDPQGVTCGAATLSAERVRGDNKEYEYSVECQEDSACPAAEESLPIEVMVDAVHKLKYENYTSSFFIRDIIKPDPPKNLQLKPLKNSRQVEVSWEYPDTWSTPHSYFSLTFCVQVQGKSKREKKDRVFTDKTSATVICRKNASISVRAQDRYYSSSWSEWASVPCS
T1 sequence 2: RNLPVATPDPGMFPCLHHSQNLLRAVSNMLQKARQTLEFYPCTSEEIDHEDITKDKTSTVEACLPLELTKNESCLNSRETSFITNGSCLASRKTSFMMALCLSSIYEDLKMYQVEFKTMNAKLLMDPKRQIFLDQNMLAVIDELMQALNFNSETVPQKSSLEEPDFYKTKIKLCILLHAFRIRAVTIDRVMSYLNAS
Assay: ELISA, coated IL-12
Procedure, shortened: (§1)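 Binding values are absorbance readings. After cytokine (1 μg/mL, carbonate buffer pH 9.6) was coated onto Maxisorp plates overnight at 4° C and the plates were blocked with 1% BSA in PBS, antibody titrations were bound for 1 hour at 25° C and detected with HRP-linked goat anti-human IgG or anti-murine immunoglobulin (1:2000). Color from TMB, stopped with 1M HCl, was read at 450 nm with 620 nm as reference.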

| Binder | binding result |
| --- | --- |
| B1 | binds |
| B2 | binds |
| B3 | binds |
| B4 | binds |
| B5 | binds |
| B6 | binds |
| B7 | binds |
| B8 | binds |
| B9 | binds |
| B10 | binds |
| B11 | binds |
| B12 | no binding (tested: not given) |
| B13 | binds |

Biological target: T2, human IL-23 (human, UniProt P29460 23-328; Q9NPF7 20-189)
T2 construct: Recombinant (Ebioscience); HIS-tagged in flow cytometry, biotinylated in some assays; also called hIL-23; rhIL-23
T2 sequence 1: T1 sequence 1
T2 sequence 2: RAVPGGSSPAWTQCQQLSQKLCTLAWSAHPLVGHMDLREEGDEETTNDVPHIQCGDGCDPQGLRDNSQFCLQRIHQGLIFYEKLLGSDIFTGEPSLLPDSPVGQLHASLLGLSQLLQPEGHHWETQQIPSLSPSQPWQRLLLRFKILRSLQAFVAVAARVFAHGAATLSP
Assay: SPR, IgG on Protein A
Description: (§2) Using SPR technology the kₐ and kd and the KD of various humanized antibodies was determined.
(§3) Using a SPR 3000, Protein A was immobilized onto FC1 and FC2 (or alternatively FC3 and FC4) of a CM5 research grade sensor chip using amine coupling, giving approximately […] RU. FC1 was used a blank throughout the experiments. The experiments were run in HBS-P buffer (SPR). At a flow rate of 20 μl/min, 20 μl of 5 μg/mL of antibody was passed over FC2. IL-12, IL-23 or IL-12p40 (Peprotech) were passed over the surface of FC1 and FC2 at concentrations ranging from 66 nM to 2 nM. Regeneration of the surface was performed using 10 mM Glycine, pH 1.0. The sensorgram data from FC2 was subtracted from FC1 and a buffer only control. The curves were fitted using a 1:1 Langmuir equation to generate the kd, ka and KD values. All curves were fitted with a χ² of less then 2.0 where possible.

| Binder | Kd | koff | kon |
| --- | --- | --- | --- |
| B14 | 0.0862 nM | 0.000415 s⁻¹ | 4.81e+06 M⁻¹ s⁻¹ |
| B15 | 0.041 nM | 0.000122 s⁻¹ | 2.99e+06 M⁻¹ s⁻¹ |
| B16 | 0.142 nM | 0.000609 s⁻¹ | 4.28e+06 M⁻¹ s⁻¹ |
| B17 | 0.0794 nM | 0.000211 s⁻¹ | 2.66e+06 M⁻¹ s⁻¹ |
| B18 | 0.05 nM | 0.000202 s⁻¹ | 4.03e+06 M⁻¹ s⁻¹ |
| B19 | 0.0877 nM | 0.000409 s⁻¹ | 4.65e+06 M⁻¹ s⁻¹ |
| B20 | 0.0246 nM | 0.000129 s⁻¹ | 5.27e+06 M⁻¹ s⁻¹ |
| B21 | 0.0373 nM | 0.000128 s⁻¹ | 3.43e+06 M⁻¹ s⁻¹ |
| B22 | 0.0424 nM | 0.000173 s⁻¹ | 4.09e+06 M⁻¹ s⁻¹ |
| B23 | 0.0297 nM | 9.27e-05 s⁻¹ | 3.12e+06 M⁻¹ s⁻¹ |

Biological target: T1, human IL-12
Assay: SPR, IgG on Protein A
Description: as §2, §3

| Binder | Kd | koff | kon |
| --- | --- | --- | --- |
| B14 | 0.157 nM | 0.000581 s⁻¹ | 3.7e+06 M⁻¹ s⁻¹ |
| B15 | 0.0927 nM | 0.000194 s⁻¹ | 2.09e+06 M⁻¹ s⁻¹ |
| B24 | 0.0794 nM | 0.000206 s⁻¹ | 2.6e+06 M⁻¹ s⁻¹ |
| B16 | 0.217 nM | 0.00084 s⁻¹ | 3.86e+06 M⁻¹ s⁻¹ |
| B17 | 0.0855 nM | 0.000356 s⁻¹ | 4.16e+06 M⁻¹ s⁻¹ |
| B18 | 0.103 nM | 0.000274 s⁻¹ | 2.65e+06 M⁻¹ s⁻¹ |
| B19 | 0.158 nM | 0.000594 s⁻¹ | 3.75e+06 M⁻¹ s⁻¹ |
| B20 | 0.0344 nM | 0.000214 s⁻¹ | 6.23e+06 M⁻¹ s⁻¹ |
| B21 | 0.046 nM | 0.000212 s⁻¹ | 4.61e+06 M⁻¹ s⁻¹ |
| B22 | 0.0681 nM | 0.000244 s⁻¹ | 3.57e+06 M⁻¹ s⁻¹ |
| B23 | 0.0325 nM | 0.000173 s⁻¹ | 5.31e+06 M⁻¹ s⁻¹ |

Biological target: T2, human IL-23
Assay: ELISA, coated IL-23
Procedure, shortened: as §1

| Binder | binding result |
| --- | --- |
| B1 | binds |
| B2 | binds |
| B3 | binds |
| B4 | binds |
| B5 | binds |
| B6 | binds |
| B7 | binds |
| B8 | binds |
| B9 | binds |
| B10 | binds |
| B11 | binds |
| B12 | binds |
| B13 | binds |
